Assay: Photometric activity determination of 7β-HSDH and mutants (decrease in absorbance at 340 nm, DHCA reduction with NADPH)
Format: biochemical
Conditions: for Specific activity / Volumetric activity: Table 4, variants modified at position 64, 10 mM DHCA, NADPH, KPi pH 8.0; for activity compared with the wild-type enzyme: qualitative statement
Method: The activity of the 7β-HSDH and of the mutants was determined using a photometric assay, where the decrease in absorbance was measured at 340 nm over a period of 30 seconds.
The expression [R64E] in the first column of the table means that the arginine (R) in position 64 of the protein sequence had been replaced by glutamic acid (E) in the mutant in question. The respective amino acid is abbreviated using the international one-letter code. Analogously, [R64D] means that an aspartic acid has been introduced at this position.

| activity compared with the wild-type enzyme | Molecule | Specific activity [U/mg] | Volumetric activity [U/ml] |
| --- | --- | --- | --- |
| increase in the specific activity | 7β-HSDH [R64D]: 7β-HSDH mutant, arginine in position 64 exchanged for aspartic acid (D) (protein, UniProt A4ECA9 1-263, looked up, variant R64D) 7beta-hydroxysteroid …: MNLREKYGEWGLILGATEGVGKAFCEKIAAGGMNVVMVGRREEKLNVLAGEIRETYGVETKVVDADFSQPGAAETVFAATEGLDMGFMSYVACLHSFGKIQDTPWEKHEAMINVNVVTFLKCFHHYMRIFAAQDRGAVINVSSMTGISSSPWNGQYGAGKAFILKMTEAVACECEGTGVDVEVITLGTTLTPSLLSNLPGGPQGEAVMKIALTPEECVDEAFEKLGKELSVIAGQRNKDSVHDWKANHTEDEYIRYMGSFYRD | 32.1 | 641.6 |
| – | 7β-HSDH [R64W]: 7β-HSDH mutant, R in position 64 replaced by W (protein, UniProt A4ECA9 1-263, looked up, variant R64W) 7beta-hydroxysteroid …: MNLREKYGEWGLILGATEGVGKAFCEKIAAGGMNVVMVGRREEKLNVLAGEIRETYGVETKVVWADFSQPGAAETVFAATEGLDMGFMSYVACLHSFGKIQDTPWEKHEAMINVNVVTFLKCFHHYMRIFAAQDRGAVINVSSMTGISSSPWNGQYGAGKAFILKMTEAVACECEGTGVDVEVITLGTTLTPSLLSNLPGGPQGEAVMKIALTPEECVDEAFEKLGKELSVIAGQRNKDSVHDWKANHTEDEYIRYMGSFYRD | 10.1 | 214 |
| – | 7β-HSDH [R64K]: 7β-HSDH mutant, R in position 64 replaced by K (protein, UniProt A4ECA9 1-263, looked up, variant R64K) 7beta-hydroxysteroid …: MNLREKYGEWGLILGATEGVGKAFCEKIAAGGMNVVMVGRREEKLNVLAGEIRETYGVETKVVKADFSQPGAAETVFAATEGLDMGFMSYVACLHSFGKIQDTPWEKHEAMINVNVVTFLKCFHHYMRIFAAQDRGAVINVSSMTGISSSPWNGQYGAGKAFILKMTEAVACECEGTGVDVEVITLGTTLTPSLLSNLPGGPQGEAVMKIALTPEECVDEAFEKLGKELSVIAGQRNKDSVHDWKANHTEDEYIRYMGSFYRD | 15.1 | 296.5 |
| – | 7β-HSDH [R64V]: 7β-HSDH mutant, R in position 64 replaced by V (protein, UniProt A4ECA9 1-263, looked up, variant R64V) 7beta-hydroxysteroid …: MNLREKYGEWGLILGATEGVGKAFCEKIAAGGMNVVMVGRREEKLNVLAGEIRETYGVETKVVVADFSQPGAAETVFAATEGLDMGFMSYVACLHSFGKIQDTPWEKHEAMINVNVVTFLKCFHHYMRIFAAQDRGAVINVSSMTGISSSPWNGQYGAGKAFILKMTEAVACECEGTGVDVEVITLGTTLTPSLLSNLPGGPQGEAVMKIALTPEECVDEAFEKLGKELSVIAGQRNKDSVHDWKANHTEDEYIRYMGSFYRD | 15.1 | 407.7 |
| – | 7β-HSDH [R64S]: 7β-HSDH mutant, R in position 64 replaced by S (protein, UniProt A4ECA9 1-263, looked up, variant R64S) 7beta-hydroxysteroid …: MNLREKYGEWGLILGATEGVGKAFCEKIAAGGMNVVMVGRREEKLNVLAGEIRETYGVETKVVSADFSQPGAAETVFAATEGLDMGFMSYVACLHSFGKIQDTPWEKHEAMINVNVVTFLKCFHHYMRIFAAQDRGAVINVSSMTGISSSPWNGQYGAGKAFILKMTEAVACECEGTGVDVEVITLGTTLTPSLLSNLPGGPQGEAVMKIALTPEECVDEAFEKLGKELSVIAGQRNKDSVHDWKANHTEDEYIRYMGSFYRD | 20.1 | 333.7 |
| – | 7β-HSDH [R64A]: 7β-HSDH mutant, R in position 64 replaced by A (protein, UniProt A4ECA9 1-263, looked up, variant R64A) 7beta-hydroxysteroid …: MNLREKYGEWGLILGATEGVGKAFCEKIAAGGMNVVMVGRREEKLNVLAGEIRETYGVETKVVAADFSQPGAAETVFAATEGLDMGFMSYVACLHSFGKIQDTPWEKHEAMINVNVVTFLKCFHHYMRIFAAQDRGAVINVSSMTGISSSPWNGQYGAGKAFILKMTEAVACECEGTGVDVEVITLGTTLTPSLLSNLPGGPQGEAVMKIALTPEECVDEAFEKLGKELSVIAGQRNKDSVHDWKANHTEDEYIRYMGSFYRD | 13.77 | 273 |
| increase in the specific activity | 7β-HSDH [R64T]: 7β-HSDH mutant, R in position 64 replaced by T (protein, UniProt A4ECA9 1-263, looked up, variant R64T) 7beta-hydroxysteroid …: MNLREKYGEWGLILGATEGVGKAFCEKIAAGGMNVVMVGRREEKLNVLAGEIRETYGVETKVVTADFSQPGAAETVFAATEGLDMGFMSYVACLHSFGKIQDTPWEKHEAMINVNVVTFLKCFHHYMRIFAAQDRGAVINVSSMTGISSSPWNGQYGAGKAFILKMTEAVACECEGTGVDVEVITLGTTLTPSLLSNLPGGPQGEAVMKIALTPEECVDEAFEKLGKELSVIAGQRNKDSVHDWKANHTEDEYIRYMGSFYRD | 27.4 | 450.5 |
| – | 7β-HSDH [R64L]: 7β-HSDH mutant, R in position 64 replaced by L (protein, UniProt A4ECA9 1-263, looked up, variant R64L) 7beta-hydroxysteroid …: MNLREKYGEWGLILGATEGVGKAFCEKIAAGGMNVVMVGRREEKLNVLAGEIRETYGVETKVVLADFSQPGAAETVFAATEGLDMGFMSYVACLHSFGKIQDTPWEKHEAMINVNVVTFLKCFHHYMRIFAAQDRGAVINVSSMTGISSSPWNGQYGAGKAFILKMTEAVACECEGTGVDVEVITLGTTLTPSLLSNLPGGPQGEAVMKIALTPEECVDEAFEKLGKELSVIAGQRNKDSVHDWKANHTEDEYIRYMGSFYRD | 20.9 | 334 |
| – | 7β-HSDH [R64I]: 7β-HSDH mutant, R in position 64 replaced by I (protein, UniProt A4ECA9 1-263, looked up, variant R64I) 7beta-hydroxysteroid …: MNLREKYGEWGLILGATEGVGKAFCEKIAAGGMNVVMVGRREEKLNVLAGEIRETYGVETKVVIADFSQPGAAETVFAATEGLDMGFMSYVACLHSFGKIQDTPWEKHEAMINVNVVTFLKCFHHYMRIFAAQDRGAVINVSSMTGISSSPWNGQYGAGKAFILKMTEAVACECEGTGVDVEVITLGTTLTPSLLSNLPGGPQGEAVMKIALTPEECVDEAFEKLGKELSVIAGQRNKDSVHDWKANHTEDEYIRYMGSFYRD | 9.83 | 171 |
| – | 7β-HSDH [R64Y]: 7β-HSDH mutant, R in position 64 replaced by Y (protein, UniProt A4ECA9 1-263, looked up, variant R64Y) 7beta-hydroxysteroid …: MNLREKYGEWGLILGATEGVGKAFCEKIAAGGMNVVMVGRREEKLNVLAGEIRETYGVETKVVYADFSQPGAAETVFAATEGLDMGFMSYVACLHSFGKIQDTPWEKHEAMINVNVVTFLKCFHHYMRIFAAQDRGAVINVSSMTGISSSPWNGQYGAGKAFILKMTEAVACECEGTGVDVEVITLGTTLTPSLLSNLPGGPQGEAVMKIALTPEECVDEAFEKLGKELSVIAGQRNKDSVHDWKANHTEDEYIRYMGSFYRD | 9.7 | 220.3 |
| – | 7β-HSDH [R64C]: 7β-HSDH mutant, R in position 64 replaced by C (protein, UniProt A4ECA9 1-263, looked up, variant R64C) 7beta-hydroxysteroid …: MNLREKYGEWGLILGATEGVGKAFCEKIAAGGMNVVMVGRREEKLNVLAGEIRETYGVETKVVCADFSQPGAAETVFAATEGLDMGFMSYVACLHSFGKIQDTPWEKHEAMINVNVVTFLKCFHHYMRIFAAQDRGAVINVSSMTGISSSPWNGQYGAGKAFILKMTEAVACECEGTGVDVEVITLGTTLTPSLLSNLPGGPQGEAVMKIALTPEECVDEAFEKLGKELSVIAGQRNKDSVHDWKANHTEDEYIRYMGSFYRD | 14.19 | 269.7 |
| – | 7β-HSDH [R64F]: 7β-HSDH mutant, R in position 64 replaced by F (protein, UniProt A4ECA9 1-263, looked up, variant R64F) 7beta-hydroxysteroid …: MNLREKYGEWGLILGATEGVGKAFCEKIAAGGMNVVMVGRREEKLNVLAGEIRETYGVETKVVFADFSQPGAAETVFAATEGLDMGFMSYVACLHSFGKIQDTPWEKHEAMINVNVVTFLKCFHHYMRIFAAQDRGAVINVSSMTGISSSPWNGQYGAGKAFILKMTEAVACECEGTGVDVEVITLGTTLTPSLLSNLPGGPQGEAVMKIALTPEECVDEAFEKLGKELSVIAGQRNKDSVHDWKANHTEDEYIRYMGSFYRD | 10.5 | 216 |
| – | 7β-HSDH [R64G]: 7β-HSDH mutant, R in position 64 replaced by G (protein, UniProt A4ECA9 1-263, looked up, variant R64G) 7beta-hydroxysteroid …: MNLREKYGEWGLILGATEGVGKAFCEKIAAGGMNVVMVGRREEKLNVLAGEIRETYGVETKVVGADFSQPGAAETVFAATEGLDMGFMSYVACLHSFGKIQDTPWEKHEAMINVNVVTFLKCFHHYMRIFAAQDRGAVINVSSMTGISSSPWNGQYGAGKAFILKMTEAVACECEGTGVDVEVITLGTTLTPSLLSNLPGGPQGEAVMKIALTPEECVDEAFEKLGKELSVIAGQRNKDSVHDWKANHTEDEYIRYMGSFYRD | 12.36 | 223 |
| – | 7β-HSDH [R64P]: 7β-HSDH mutant, R in position 64 replaced by P (protein, UniProt A4ECA9 1-263, looked up, variant R64P) 7beta-hydroxysteroid …: MNLREKYGEWGLILGATEGVGKAFCEKIAAGGMNVVMVGRREEKLNVLAGEIRETYGVETKVVPADFSQPGAAETVFAATEGLDMGFMSYVACLHSFGKIQDTPWEKHEAMINVNVVTFLKCFHHYMRIFAAQDRGAVINVSSMTGISSSPWNGQYGAGKAFILKMTEAVACECEGTGVDVEVITLGTTLTPSLLSNLPGGPQGEAVMKIALTPEECVDEAFEKLGKELSVIAGQRNKDSVHDWKANHTEDEYIRYMGSFYRD | 19.1 | 402.0 |
